Source: patent US20210033609A1 (EUROIMMUN MEDIZINISCHE LABORDIAGNOSTIKA, published 2021)

T1: bovine Apolipoprotein A-I (Bos taurus, UniProt P15497 25-265)
T1 construct: also called bovine apolipoprotein A1; Apo AI[Bos taurus]
T1 sequence: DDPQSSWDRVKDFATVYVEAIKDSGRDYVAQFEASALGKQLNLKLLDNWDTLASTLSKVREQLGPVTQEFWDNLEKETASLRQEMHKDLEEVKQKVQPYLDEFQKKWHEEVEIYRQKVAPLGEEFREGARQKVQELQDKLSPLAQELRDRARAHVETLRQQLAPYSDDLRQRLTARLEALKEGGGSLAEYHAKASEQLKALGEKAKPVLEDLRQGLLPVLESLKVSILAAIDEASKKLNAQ

B1: sNS1 (recombinant Zika virus NS1 purified from HEK293T culture supernatant) (other)
chain: GPMDVGCSVDFSKKETRCGTGVFVYNDVEAWRDRYKYHPDSPRRLAAAVKQAWEEGICGISSVSRMENIMWKSVEGELNAILEENGVQLTVVVGSVKNPMWRGPQRLPVPVNELPHGWKAWGKSYFVRAAKTNNSFVVDGDTLKECPLKHRAWNSFLVEDHGFGVFHTSVWLKVREDYSLECDPAVIGTAVKGKEAAHSDLGYWIESEKNDTWRLKRAHLIEMKTCEWPKSHTLWTDGVEESDLIIPKSLAGPLSHHNTREGYRTQVKGPWHSEELEIRFEECPGTKVHVEETCGTRGPSLRSTTASGRVIEEWCCRECTMPPLSFRAKDGCWYGMEIRPRKEPESNLVRSMVTALEHHHHHHHH
notes: Secreted form purified in the presence of 0.1% Triton X-100; Gel filtration: mainly hexamer (227 kDa); also called NS1[ZIKV]; soluble NS1 purified from cell culture supernatant
B2: mNS1 (recombinant Zika virus NS1 purified from HEK293T cell lysate) (other)
chain: B1 chain
notes: Expressed in HEK293T from pTriEx-1; Gel filtration: mainly hexamer (212 kDa) with an extra monomer peak (44 kDa); SDS gives a dimer, heat gives a monomer; also called NS1[ZIKV]; membranous NS1 purified from cells

Experiments:
[1] = target: the molecule itself; test: self-association; analytical gel filtration (Superdex 200)
[2] = target: T1, bovine Apolipoprotein A-I; test: co-purification from cell culture supernatant on nickel affinity resin via the His tag of NS1

Binder | binding result [1] | binding result [2]
B1 | binds | binds
B2 | binds | 
